Measured values published in the supplement of paper PMC5998384.

Tests used:
HeLa Kyoto [1] = test: solubility change mitosis vs G1/S (difference of NP-40 vs SDS log2 ratios) (log2 ratio difference); higher = more soluble in mitosis
HeLa Kyoto [2] = test: solubility in G1/S (NP-40 vs SDS abundance) (log2 ratio); higher = more soluble; conditions: cell cycle stage: G1/S
HeLa Kyoto [3] = test: thermal stability score vs G1/S (z-score of summed log2 fold changes over temperatures); higher = more thermally stable than in G1/S
HeLa Kyoto [4] = test: melting temperature (median over replicates), in situ; higher = more thermally stable
[5] = cell cycle stage: early G1 (4.5 h after nocodazole release)
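Throughout, for melting temperature (median over replicates), in situ: HeLa Kyoto cells synchronized by double thymidine or nocodazole block, proteins quantified by TMT10plex mass spectrometry, three independent biological replicates.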
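Throughout, for solubility change mitosis vs G1/S (difference of NP-40 vs SDS log2 ratios): synchronized HeLa Kyoto cells (double thymidine block for G1/S, nocodazole release for mitosis), protein amounts in NP-40 versus SDS lysates quantified by mass spectrometry, three biological replicates.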
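Throughout, for solubility in G1/S (NP-40 vs SDS abundance): HeLa Kyoto cells arrested at G1/S by double thymidine block, proteins quantified by TMT10plex mass spectrometry in mild NP-40 versus SDS extracts, three biological replicates.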
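Throughout, for thermal stability score vs G1/S (z-score of summed log2 fold changes over temperatures): synchronized HeLa Kyoto cells, proteins quantified by TMT10plex mass spectrometry, three biological replicates, mitosis taken 0.5 h after nocodazole release, G1/S directly after double thymidine block.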

Sequence | solubility change mitosis (log2) (HeLa Kyoto [1]) | solubility in G1/S (log2) (HeLa Kyoto [2]) | thermal stability score (HeLa Kyoto [3]; [5]) | thermal stability score (HeLa Kyoto [3]; cell cycle stage: mitosis) | melting temperature (HeLa Kyoto [4]; cell cycle stage: G1/S) [°C] | melting temperature (HeLa Kyoto [4]; cell cycle stage: mitosis) [°C]
MEPFSCDTFVALPPATVDNRIIFGKNSDRLYDEVQEVVYFPAVVHDNLGERLKCTYIEIDQVPETYAVVLSRPAWLWGAEMGANEHGVCIGNEAVWGREEVCDEEALLGMDLVRLGLERADTAEKALNVIVDLLEKYGQGGNCTEGRMVFSYHNSFLIADRNEAWILETAGKYWAAEKVQEGVRNISNQLSITTKIAREHPDMRNYAKRKGWWDGKKEFDFAAAYSYLDTAKMMTSSGRYCEGYKLLNKHKGNITFETMMEILRDKPSGINMEGEFLTTASMVSILPQDSSLPCIHFFTGTPDPERSVFKPFIFVPHISQLLDTSSPTFELEDLVKKKSHFKPDRRHPLYQKHQQALEVVNNNEEKAKIMLDNMRKLEKELFREMESILQNKHLDVEKIVNLFPQCTKDEIQIYQSNLSVKVSS [SCRN3] | -0.25 | 0.271 | -0.926 | -0.525 | 52.9 | 52.3
MEPGRRGAAALLALLCVACALRAGRAQYERYSFRSFPRDELMPLESAYRHALDKYSGEHWAESVGYLEISLRLHRLLRDSEAFCHRNCSAAPQPEPAAGLASYPELRLFGGLLRRAHCLKRCKQGLPAFRQSQPSREVLADFQRREPYKFLQFAYFKANNLPKAIAAAHTFLLKHPDDEMMKRNMAYYKSLPGAEDYIKDLETKSYESLFIRAVRAYNGENWRTSITDMELALPDFFKAFYECLAACEGSREIKDFKDFYLSIADHYVEVLECKIQCEENLTPVIGGYPVEKFVATMYHYLQFAYYKLNDLKNAAPCAVSYLLFDQNDKVMQQNLVYYQYHRDTWGLSDEHFQPRPEAVQFFNVTTLQKELYDFAKENIMDDDEGEVVEYVDDLLELEETS [CRTAP] | -0.0925 | 0.35 | 3.61 | 4.97 | 53.3 | 54.8
MEPPSCIQDEPFPHPLEPEPGVSAQPGPGKPSDKRFRLWYVGGSCLDHRTTLPMLPWLMAEIRRRSQKPEAGGCGAPAAREVILVLSAPFLRCVPAPGAGASGGTSPSATQPNPAVFIFEHKAQHISRFIHNSHDLTYFAYLIKAQPDDPESQMACHVFRATDPSQVPDVISSIRQLSKAAMKEDAKPSKDNEDAFYNSQKFEVLYCGKVTVTHKKAPSSLIDDCMEKFSLHEQQRLKIQGEQRGPDPGEDLADLEVVVPGSPGDCLPEEADGTDTHLGLPAGASQPALTSSRVCFPERILEDSGFDEQQEFRSRCSSVTGVQRRVHEGSQKSQPRRRHASAPSHVQPSDSEKNRTMLFQVGRFEINLISPDTKSVVLEKNFKDISSCSQGIKHVDHFGFICRESPEPGLSQYICYVFQCASESLVDEVMLTLKQAFSTAAALQSAKTQIKLCEACPMHSLHKLCERIEGLYPPRAKLVIQRHLSSLTDNEQADIFERVQKMKPVSDQEENELVILHLRQLCEAKQKTHVHIGEGPSTISNSTIPENATSSGRFKLDILKNKAKRSLTSSLENIFSRGANRMRGRLGSVDSFERSNSLASEKDYSPGDSPPGTPPASPPSSAWQTFPEEDSDSPQFRRRAHTFSHPPSSTKRKLNLQDGRAQGVRSPLLRQSSSEQCSNLSSVRRMYKESNSSSSLPSLHTSFSAPSFTAPSFLKSFYQNSGRLSPQYENEIRQDTASESSDGEGRKRTSSTCSNESLSVGGTSVTPRRISWRQRIFLRVASPMNKSPSAMQQQDGLDRNELLPLSPLSPTMEEEPLVVFLSGEDDPEKIEERKKSKELRSLWRKAIHQQILLLRMEKENQKLEASRDELQSRKVKLDYEEVGACQKEVLITWDKKLLNCRAKIRCDMEDIHTLLKEGVPKSRRGEIWQFLALQYRLRHRLPNKQQPPDISYKELLKQLTAQQHAILVDLGRTFPTHPYFSVQLGPGQLSLFNLLKAYSLLDKEVGYCQGISFVAGVLLLHMSEEQAFEMLKFLMYDLGFRKQYRPDMMSLQIQMYQLSRLLHDYHRDLYNHLEENEISPSLYAAPWFLTLFASQFSLGFVARVFDIIFLQGTEVIFKVALSLLSSQETLIMECESFENIVEFLKNTLPDMNTSEMEKIITQVFEMDISKQLHAYEVEYHVLQDELQESSYSCEDSETLEKLERANSQLKRQNMDLLEKLQVAHTKIQALESNLENLLTRETKMKSLIRTLEQEKMAYQKTVEQLRKLLPADALVNCDLLLRDLNCNPNNKAKIGNKP [TBC1D4] | -0.0775 | -0.0729 | -0.833 | -0.739 | 51.1 | 50.5
MEPRAVGVSKQDIREQIWGYMESQNLADFPRPVHHRIPNFKGSYLACQNIKDLDVFARTQEVKVDPDKPLEGVRLLVLQSKKTLLVPTPRLRTGLFNKITPPPGATKDILRKCATSQGVRNYSVPIGLDSRVLVDLVVVGSVAVSEKGWRIGKGEGYADLEYAMMVSMGAVSKETPVVTIVHDCQVVDIPEELVEEHDITVDYILTPTRVIATGCKRPKPMGITWFKISLEMMEKIPILRSLRAREQQAGKDVTLQGEHQHLPEPGCQQTVPLSVGRRPPDTPGPETNSMEAAPGSPPGEGAPLAADVYVGNLPGDARVSDLKRALRELGSVPLRLTWQGPRRRAFLHYPDSAAAQQAVSCLQGLRLGTDTLRVALARQQRDK [MTHFSD] | 0.0284 | -0.0248 | -0.334 | -0.971 | 54.7 | 53.5
MEPSSKKLTGRLMLAVGGAVLGSLQFGYNTGVINAPQKVIEEFYNQTWVHRYGESILPTTLTTLWSLSVAIFSVGGMIGSFSVGLFVNRFGRRNSMLMMNLLAFVSAVLMGFSKLGKSFEMLILGRFIIGVYCGLTTGFVPMYVGEVSPTALRGALGTLHQLGIVVGILIAQVFGLDSIMGNKDLWPLLLSIIFIPALLQCIVLPFCPESPRFLLINRNEENRAKSVLKKLRGTADVTHDLQEMKEESRQMMREKKVTILELFRSPAYRQPILIAVVLQLSQQLSGINAVFYYSTSIFEKAGVQQPVYATIGSGIVNTAFTVVSLFVVERAGRRTLHLIGLAGMAGCAILMTIALALLEQLPWMSYLSIVAIFGFVAFFEVGPGPIPWFIVAELFSQGPRPAAIAVAGFSNWTSNFIVGMCFQYVEQLCGPYVFIIFTVLLVLFFIFTYFKVPETKGRTFDEIASGFRQGGASQSDKTPEELFHPLGADSQV [SLC2A1] | -0.284 | 0.0648 | -1.89 | -3.29 | 57.3 | 
MEPTAPSLTEEDLTEVKKDALENLRVYLCEKIIAERHFDHLRAKKILSREDTEEISCRTSSRKRAGKLLDYLQENPKGLDTLVESIRREKTQNFLIQKITDEVLKLRNIKLEHLKGLKCSSCEPFPDGATNNLSRSNSDESNFSEKLRASTVMYHPEGESSTTPFFSTNSSLNLPVLEVGRTENTIFSSTTLPRPGDPGAPPLPPDLQLEEEGTCANSSEMFLPLRSRTVSRQ [BCL10] | 0.181 | 0.624 | -0.239 | -0.726 | 49.8 | 50.5
MEPVGCCGECRGSSVDPRSTFVLSNLAEVVERVLTFLPAKALLRVACVCRLWRECVRRVLRTHRSVTWISAGLAEAGHLEGHCLVRVVAEELENVRILPHTVLYMADSETFISLEECRGHKRARKRTSMETALALEKLFPKQCQVLGIVTPGIVVTPMGSGSNRPQEIEIGESGFALLFPQIEGIKIQPFHFIKDPKNLTLERHQLTEVGLLDNPELRVVLVFGYNCCKVGASNYLQQVVSTFSDMNIILAGGQVDNLSSLTSEKNPLDIDASGVVGLSFSGHRIQSATVLLNEDVSDEKTAEAAMQRLKAANIPEHNTIGFMFACVGRGFQYYRAKGNVEADAFRKFFPSVPLFGFFGNGEIGCDRIVTGNFILRKCNEVKDDDLFHSYTTIMALIHLGSSK [FBXO22] | -0.22 | -0.097 | -9.18 | -9.79 | 55.1 | 53.1
MEQLSSANTRFALDLFLALSENNPAGNIFISPFSISSAMAMVFLGTRGNTAAQLSKTFHFNTVEEVHSRFQSLNADINKRGASYILKLANRLYGEKTYNFLPEFLVSTQKTYGADLASVDFQHASEDARKTINQWVKGQTEGKIPELLASGMVDNMTKLVLVNAIYFKGNWKDKFMKEATTNAPFRLNKKDRKTVKMMYQKKKFAYGYIEDLKCRVLELPYQGEELSMVILLPDDIEDESTGLKKIEEQLTLEKLHEWTKPENLDFIEVNVSLPRFKLEESYTLNSDLARLGVQDLFNSSKADLSGMSGARDIFISKIVHKSFVEVNEEGTEAAAATAGIATFCMLMPEENFTADHPFLFFIRHNSSGSILFLGRFSSP [SERPINB1] | -0.165 | 0.121 | 1.35 | -2.02 | 53.2 | 53.2
